Patent publication US11214595B2, “BK channel-modulating peptides and their use” (UNIVERSITY OF SOUTH FLORIDA, priority 2016, dated 2022)
Positions of bridges follow the written chain, without caps; N, C: chain ends. Residues, ends and D or L forms follow the SMILES beside them.

Columns and labels:
[1] = Blood-brain barrier crossing after application to the dural surface of the auditory midbrain; settings: mouse, in vivo
Experimental: The peptide can shuttle both itself and small molecule cargo across the blood-brain barrier of the mammalian brain. […] High dose application supports these peptides' use for suppressing audiogenic seizures, while the lower dose supports these peptides' use for reducing the effects of age-related hearing loss.
When this compound was applied to the dura, fluorescence could be seen at ˜1200 microns in depth after 8 hours.

[2] = target: T1, human BKα channel (ZERO isoform) (Homo sapiens, UniProt Q12791); test: Patch-clamp recordings of human BKα channels (ZERO isoform) expressed in HEK293 cells, inside-out patches; type: cell-based
T1 construct: expressed in transfected cells; host or cells: HEK293
Experimental: FIGS. 6A-6H. LS3 alters the gating of human BK channels. Human BKα channels (ZERO isoform) expressed in HEK293 cells were recorded in inside-out patches. Peptide was applied by diffusion to the extracellular side. Intracellular calcium held at 750 nM. […] FIGS. 6C-6E, Bar graphs displaying the post-peptide Po relative to the starting Po across LS3 concentrations. […] FIG. 6F-6H, Bar graphs displaying the post-peptide Po relative to the starting Po for either 500 nM LS3 (cyclic) or 500 nM of the reduced form of LS3 (linear).
FIGS. 7A-7C. LS3 alters open and closed dwell times of the human BK channel. Single human BKα channels (ZERO isoform) expressed in HEK293 cells were recorded in inside-out patches. Intracellular calcium held at 750 nM. FIGS. 7A-7C, Bar graphs showing one example of changes in open and closed dwell times before (red) and after (black) 500 nM LS3 (100 mV). Channel open dwell times shortened (FIG. 7A).
FIGS. 11A-11C. The 9-amino acid peptides with an N- and C-terminal disulfide bond express motifs that were highly enriched in a screen for BK channel targeted peptides (FIG. 11A). […] 60 mV shown. N=6-12. Dotted line indicates baseline (FIGS. 11B and 11C).
FIGS. 13A-1, 13A-2, 13B, 13C-1, 13C-2, 13D-1, and 13D-2. […] Single human BKα (ZERO isoform) channels expressed in HEK293 cells were recorded in inside-out patches before and after 500 nM LS10. Intracellular calcium held at 750 nM. FIGS. 13A-1 and 13A-2: open dwell times before (FIG. 13A-1) and after (FIG. 13A-2) LS10 for a representative recording at 100 mV. Single exponential fit, red line. FIG. 13B: the mean change in peak open dwell times in response to LS10. Paired Student's t-tests compared the pre- and post-peptide peak open durations, *p<0.05, N=5-6). FIGS. 13C-1 and 13C-2: closed dwell times before (FIG. 13C-1) and after (FIG. 13C-2) LS10 for a representative recording at 100 mV. […] Three component exponential fits (gray dotted-lines) and summation (red lines) also indicated. FIGS. 13D-1 and 13D-2: the mean change in peak short (FIG. 13D-1) and long (FIG. 13D-2) duration closed dwell times in response to LS10. Paired Student's t-tests compared the pre- and post-peptide peak open durations, *p<0.05, N=6.
(§1) HEK293 cells (ATCC, Manassas, Va.) were grown according to standard procedures. Cells were cultured at 37° C. in a 5% CO2 atmosphere in Dulbecco's modified Eagle's medium with 1-glutamine, sodium pyruvate and 10% fetal bovine serum (Invitrogen). Cell lines were split with trypsin/EDTA in Hanks' balanced salt solution (Invitrogen) up to 25-30 cycles. For phage display, stable lines stably expressed rSK2 or hBKα ZERO isoform. Cells were transfected (Lipofectamine 2000, Invitrogen) with hGlyRα1 and used 48 hours later. For electrophysiological recordings, cells were transfected with the hBKα ZERO or STREX isoform. Enhanced green fluorescent protein (EGFP) was cotransfected as a marker. Electrophysiological recordings were made 16-72 h after transfection. Although the profile of BK channel composition varies from tissue to tissue, the ZERO BK channel splice variant is widely expressed, particularly in the nervous system, serving as a representative form for studying the modulation of BK channel gating.
Voltage-clamp recordings were performed at room temperature (22-24° C.) using an inside-out configuration on patches pulled from HEK293 cells. The extracellular solution contained the following (in mM): 2 KCl, 136 KOH, 20 Hepes, 2 MgCl2, adjusted to pH 7.2 with MeSO3H. In order to apply peptide to the extracellular surface, patch electrodes (7-20 MΩ in resistance) were tip filled with normal extracellular solution and backfilled with extracellular solution containing LS3. Enough normal extracellular solution was included to provide at least five minutes of peptide-free recording (determined by plotting Po vs. time). The intracellular solution (in the bath) contained the following (in mM): 6 KCl, 132 KOH, 20 Hepes, adjusted to pH 7.2 with MeSO3H. […]

[3] = system: smooth muscle; test: Ex vivo preparations of bladder
[4] = system: inferior colliculus neurons; settings: topical 1 μL of 10 μM stock on surface of IC, 5 hours post-application, N=5 mice
[5] = target: T2, human BKα channel (STREX isoform) (Homo sapiens, UniProt Q12791); test: Patch-clamp recordings of human BKα channels (STREX isoform) expressed in HEK293 cells, inside-out patches; type: cell-based; settings: 500 nM, 100 mV, intracellular calcium 750 nM
T2 construct: expressed in transfected cells; host or cells: HEK293
Experimental: (§2) FIGS. 12A, 12B-1, 12B-2, 12C, 12D, and 12E. […] FIGS. 12B-1 and 12B-2: representative three second traces at 100 mV before and after LS10 (500 nM). […] BKα channels expressed in HEK293 cells were recorded in inside-out patches. Intracellular calcium held at 750 nM. […] SLO-1 channels expressed in oocytes cells were recorded in inside-out patches. Intracellular calcium held at 5 μM.
as §1, with “Electrophysiological recordings were made 16-72 h after transfection. Although the profile of BK channel composition varies from tissue to tissue, the ZERO BK channel splice variant is widely expressed, particularly in the nervous system, serving as a representative form for studying the modulation of BK channel gating.” left out
Voltage-clamp recordings were performed at room temperature (22-24° C.) using an inside-out configuration on patches pulled from HEK293 cells. […] Enough normal extracellular solution was included to provide at least five minutes of peptide-free recording (determined by plotting Po vs. time). […]

[6] = target: T3, worm BK channel (SLO-1) (Caenorhabditis elegans, UniProt Q95V25); test: Inside-out patch recordings of SLO-1 channels expressed in oocytes; type: cell-based, C. elegans; settings: 100 mV, intracellular calcium 5 μM
T3 construct: expressed in transfected cells
Experimental: as §2
FIGS. 14A-1, 14A-2, and 14B. LS10 prevents the potentiation of BK channels by acute ethanol exposure. SLO-1 channels expressed in oocytes cells were recorded in inside-out patches before. Intracellular calcium held at 5 μM. FIGS. 14A-1 and 14A-2: representative three second traces at 100 mV before (upper traces) and after (lower traces) bath application of 50 mM ethanol. […] FIG. 14B: mean Po change in response to ethanol for control recordings (open bars) and in the presence of LS10 (shaded bars). Paired Student's t-tests compared the Po before and after ethanol, *p<0.05, N=5.

T1 sequence (Q12791 1-1178 isoform Q12791-5): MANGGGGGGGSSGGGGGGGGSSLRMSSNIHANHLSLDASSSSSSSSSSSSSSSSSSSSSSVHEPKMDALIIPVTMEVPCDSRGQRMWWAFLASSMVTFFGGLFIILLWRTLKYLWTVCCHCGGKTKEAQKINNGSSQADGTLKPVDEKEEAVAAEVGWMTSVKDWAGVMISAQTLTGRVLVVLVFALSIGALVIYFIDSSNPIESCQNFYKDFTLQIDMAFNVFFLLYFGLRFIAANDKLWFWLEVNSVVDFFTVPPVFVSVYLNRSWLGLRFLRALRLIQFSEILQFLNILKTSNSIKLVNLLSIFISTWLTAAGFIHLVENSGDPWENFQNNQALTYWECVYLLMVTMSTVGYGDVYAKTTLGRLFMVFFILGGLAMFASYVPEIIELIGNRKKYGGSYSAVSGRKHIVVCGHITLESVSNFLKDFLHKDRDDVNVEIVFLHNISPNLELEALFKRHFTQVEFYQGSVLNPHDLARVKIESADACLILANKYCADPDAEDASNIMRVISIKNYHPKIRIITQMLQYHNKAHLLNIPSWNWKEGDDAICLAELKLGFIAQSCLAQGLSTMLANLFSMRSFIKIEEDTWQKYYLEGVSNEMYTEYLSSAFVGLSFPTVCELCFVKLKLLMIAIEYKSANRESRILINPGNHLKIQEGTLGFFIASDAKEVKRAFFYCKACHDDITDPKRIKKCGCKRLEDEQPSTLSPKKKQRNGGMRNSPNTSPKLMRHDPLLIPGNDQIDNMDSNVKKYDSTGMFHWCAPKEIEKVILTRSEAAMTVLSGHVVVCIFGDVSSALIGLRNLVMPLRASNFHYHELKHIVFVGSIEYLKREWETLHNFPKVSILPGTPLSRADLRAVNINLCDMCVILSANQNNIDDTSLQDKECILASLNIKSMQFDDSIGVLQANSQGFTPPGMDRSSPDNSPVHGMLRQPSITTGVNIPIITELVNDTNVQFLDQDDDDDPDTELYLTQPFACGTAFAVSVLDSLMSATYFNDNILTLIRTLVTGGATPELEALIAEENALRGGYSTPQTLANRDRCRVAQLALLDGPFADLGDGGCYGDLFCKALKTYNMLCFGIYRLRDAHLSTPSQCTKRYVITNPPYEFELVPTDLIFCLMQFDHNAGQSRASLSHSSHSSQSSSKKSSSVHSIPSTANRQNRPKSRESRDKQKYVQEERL
T3 sequence (Q95V25 whole entry): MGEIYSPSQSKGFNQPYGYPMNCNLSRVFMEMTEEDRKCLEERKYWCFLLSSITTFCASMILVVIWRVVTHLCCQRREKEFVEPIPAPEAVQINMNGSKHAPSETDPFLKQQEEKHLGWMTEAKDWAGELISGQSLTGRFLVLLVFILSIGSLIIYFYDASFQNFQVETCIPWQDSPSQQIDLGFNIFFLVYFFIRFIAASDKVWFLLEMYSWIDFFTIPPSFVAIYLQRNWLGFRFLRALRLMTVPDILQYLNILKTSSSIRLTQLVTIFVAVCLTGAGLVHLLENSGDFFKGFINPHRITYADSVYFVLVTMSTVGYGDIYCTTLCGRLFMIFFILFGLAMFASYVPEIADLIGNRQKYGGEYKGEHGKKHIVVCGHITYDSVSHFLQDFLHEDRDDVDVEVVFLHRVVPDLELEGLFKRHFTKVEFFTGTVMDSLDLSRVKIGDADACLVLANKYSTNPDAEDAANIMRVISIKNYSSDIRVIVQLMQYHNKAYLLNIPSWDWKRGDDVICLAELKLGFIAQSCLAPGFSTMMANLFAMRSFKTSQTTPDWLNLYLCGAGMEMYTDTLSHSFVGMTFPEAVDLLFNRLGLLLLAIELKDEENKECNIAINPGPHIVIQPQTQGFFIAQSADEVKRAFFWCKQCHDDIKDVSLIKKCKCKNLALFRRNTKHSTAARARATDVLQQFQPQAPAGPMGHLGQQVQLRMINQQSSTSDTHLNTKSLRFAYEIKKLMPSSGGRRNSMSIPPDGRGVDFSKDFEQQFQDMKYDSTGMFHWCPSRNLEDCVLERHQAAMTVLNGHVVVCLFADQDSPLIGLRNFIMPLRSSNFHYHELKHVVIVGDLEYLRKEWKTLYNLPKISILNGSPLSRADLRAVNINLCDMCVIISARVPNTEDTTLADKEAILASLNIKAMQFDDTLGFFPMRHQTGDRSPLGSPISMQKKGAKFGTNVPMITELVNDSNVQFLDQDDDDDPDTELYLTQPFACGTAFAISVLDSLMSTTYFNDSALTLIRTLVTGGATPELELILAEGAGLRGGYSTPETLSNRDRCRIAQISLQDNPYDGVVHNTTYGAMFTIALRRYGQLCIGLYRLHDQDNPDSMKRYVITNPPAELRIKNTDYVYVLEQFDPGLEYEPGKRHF
T2 sequence (Q12791 whole entry, canonical isoform): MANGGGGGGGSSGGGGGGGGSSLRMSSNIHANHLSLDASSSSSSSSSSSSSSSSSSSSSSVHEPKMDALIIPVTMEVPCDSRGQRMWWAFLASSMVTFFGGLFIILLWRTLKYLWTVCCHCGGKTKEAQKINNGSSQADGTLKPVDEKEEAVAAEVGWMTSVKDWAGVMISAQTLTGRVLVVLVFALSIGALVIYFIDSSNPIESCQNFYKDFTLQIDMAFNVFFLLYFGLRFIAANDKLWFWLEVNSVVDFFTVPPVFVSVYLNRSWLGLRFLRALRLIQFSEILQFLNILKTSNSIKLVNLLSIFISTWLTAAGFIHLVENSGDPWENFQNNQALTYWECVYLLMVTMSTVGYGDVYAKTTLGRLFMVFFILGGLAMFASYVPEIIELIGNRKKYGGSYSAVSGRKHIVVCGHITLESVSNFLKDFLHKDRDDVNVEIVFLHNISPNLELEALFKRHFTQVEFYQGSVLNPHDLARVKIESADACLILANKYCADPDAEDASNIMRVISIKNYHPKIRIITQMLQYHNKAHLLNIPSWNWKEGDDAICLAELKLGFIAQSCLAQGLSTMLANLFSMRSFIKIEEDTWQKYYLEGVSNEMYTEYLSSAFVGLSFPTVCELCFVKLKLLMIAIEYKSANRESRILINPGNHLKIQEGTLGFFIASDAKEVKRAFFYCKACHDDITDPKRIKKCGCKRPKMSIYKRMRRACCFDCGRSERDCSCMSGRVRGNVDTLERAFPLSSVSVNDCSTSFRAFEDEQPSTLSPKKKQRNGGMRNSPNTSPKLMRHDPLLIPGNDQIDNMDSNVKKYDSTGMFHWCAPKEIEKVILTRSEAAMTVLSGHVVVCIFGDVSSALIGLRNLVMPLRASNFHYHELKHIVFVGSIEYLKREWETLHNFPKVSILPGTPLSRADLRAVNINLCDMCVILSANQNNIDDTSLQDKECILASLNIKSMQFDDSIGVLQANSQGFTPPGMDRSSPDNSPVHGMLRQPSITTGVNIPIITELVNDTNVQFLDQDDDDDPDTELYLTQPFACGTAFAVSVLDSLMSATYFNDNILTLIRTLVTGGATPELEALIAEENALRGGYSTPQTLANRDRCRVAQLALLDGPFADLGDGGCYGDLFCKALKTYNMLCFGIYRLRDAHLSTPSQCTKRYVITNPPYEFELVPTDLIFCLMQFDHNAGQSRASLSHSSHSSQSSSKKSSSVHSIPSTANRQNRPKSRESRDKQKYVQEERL

For CC(C)[C@@H]1NC(=O)CNC(=O)[C@H](CCCNC(=N)N)NC(=O)[C@H](C)NC(=O)[C@@H](N)CSSC[C@@H](C(=O)O)NC(=O)[C@H](C(C)C)NC(=O)[C@H](CCCNC(=N)N)NC(=O)[C@H](Cc2ccc(O)cc2)NC1=O [LS1, CARGVYRVC] (H-CARGVYRVC-OH; disulfide 1-9; N-terminus and C-terminus assumed), the “crossing of the blood-brain barrier” value [1] was “able to cross the blood-brain barrier”.

In the case of CC(C)C[C@@H]1NC(=O)CNC(=O)[C@H](CCCNC(=N)N)NC(=O)[C@H](CCCNC(=N)N)NC(=O)[C@@H](N)CSSC[C@@H](C(=O)O)NC(=O)[C@H](C(C)C)NC(=O)[C@H](CCC(N)=O)NC(=O)[C@H](C(C)C)NC1=O [LS3, CRRGLVQVC] (H-CRRGLVQVC-OH; disulfide 1-9; N-terminus and C-terminus assumed), the IC50 ([2]; suppression of channel openings) was “low hundreds”, the “crossing of the blood-brain barrier” value [1] was “can cross the blood-brain barrier” and the “anti-BK channel activity in smooth muscle” value [3] was “does not show typical anti-BK channel activity in smooth muscle”.

For CC(C)(O)[C@H]1O[C@H]2CC[C@@]3(C)[C@@](O)(CC[C@H]4Cc5c([nH]c6ccccc56)[C@@]43C)C2=CC1=O [paxilline], the “reduction in sound driven activity” value [4] was 87%.

With CAVGRLAVC (pskan10/LS10 peptide) the “open dwell times / mean open times” value ([2]; 500 nM peptide, single channels, intracellular calcium 750 nM, each holding voltage) was “shortens open dwell times”, the closed dwell times ([2]; 500 nM peptide, three-component exponential fits, intracellular calcium 750 nM) was “Half of the recordings showed a lengthening in closed times” and the mean open times ([2]; 500 nM, 60 mV) was “reduce mean open times”. The “change in probability of opening (Po)” value ([2]; 500 nM, 100 mV, intracellular calcium 750 nM) was “little change in the probability of opening”, the “change in probability of opening (Po)” value [5] was “little change in the probability of opening” and the “change in probability of opening (Po)” value ([6]; 500 nM) was “significant reduction in the probability of opening”. The “potentiation of the probability of opening (Po) by ethanol” value ([6]; 50 mM ethanol, 500 nM peptide) was “blocked”.

With “reduced form of LS3 (linear): the reduced form of LS3 (linear), without the disulfide bridge (CRRGLVQVC; cyclised or stapled)” the “post-peptide Po relative to the starting Po” value ([2]; 500 nM, linear vs cyclic form) was “did not alter Po”.
